Test results reported in patent publication US9259432.
pKd: −log10 of the molar value.

Target: S100B protein
Test: tryptophan fluorescence quenching, S100B titrated into 5.0 µM peptide, 0.1 mM CaCl2, 12° C.

S100B protein, sequence (P02638 2-92): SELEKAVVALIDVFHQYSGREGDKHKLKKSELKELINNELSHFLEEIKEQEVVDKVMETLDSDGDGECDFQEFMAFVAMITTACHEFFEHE

pKd: 6.68
Substance: TRTK12 peptide
